Source: patent publication US20220372490A1

Key:
[1] = molecular target: p53^WT, p53^R175H, p53^R248Q, p53^R273H and p53^R280K (His-tagged recombinant proteins, as a group); experiment: ELISA, His-tagged recombinant proteins
[2] = molecular target: the mutants (p53 mutants in whole cell lysates of SKBR3, MDA-MB-231, MDA-MB-468 and HCC70, as a group); experiment: cell-based or functional assay
[3] = molecular target: p53WT and the mutants (p53 in whole cell lysates of CAL-51, SKBR3, MDA-MB-231, MDA-MB-468 and HCC70, as a group); experiment: IP of all p53 with excess antibody, WB of PEPD in the precipitate against input

B1: His-tagged recombinant human PEPD (prolidase, peptidase D) (enzyme, UniProt P12955 1-493, looked up)
chain: MAAATGPSFWLGNETLKVPLALFALNRQRLCERLRKNPAVQAGSIVVLQGGEETQRYCTDTGVLFRQESFFHWAFGVTEPGCYGVIDVDTGKSTLFVPRLPASHATWMGKIHSKEHFKEKYAVDDVQYVDEIASVLTSQKPSVLLTLRGVNTDSGSVCREASFDGISKFEVNNTILHPEIVECRVFKTDMELEVLRYTNKISSEAHREVMKAVKVGMKEYELESLFEHYCYSRGGMRHSSYTCICGSGENSAVLHYGHAGAPNDRTIQNGDMCLFDMGGEYYCFASDITCSFPANGKFTADQKAVYEAVLRSSRAVMGAMKPGVWWPDMHRLADRIHLEELAHMGILSGSVDAMVQAHLGAVFMPHGLGHFLGIDVHDVGGYPEGVERIDEPGLRSLRTARHLQPGMVLTVEPGIYFIDHLLDEALADPARASFLNREVLQRFRGFGGVRIEEDVVVTDSGIELLTCVPRTVEEIEACMAGCDKAFTPFSGPK
B1 gave a Kd [1] of 145 to 185 nM.

B2: PEPD in human breast cancer cells (endogenous, in cell lysates, cytosol or nuclear extracts), P12955 2-493 (enzyme, UniProt P12955 2-493, looked up)
chain: AAATGPSFWLGNETLKVPLALFALNRQRLCERLRKNPAVQAGSIVVLQGGEETQRYCTDTGVLFRQESFFHWAFGVTEPGCYGVIDVDTGKSTLFVPRLPASHATWMGKIHSKEHFKEKYAVDDVQYVDEIASVLTSQKPSVLLTLRGVNTDSGSVCREASFDGISKFEVNNTILHPEIVECRVFKTDMELEVLRYTNKISSEAHREVMKAVKVGMKEYELESLFEHYCYSRGGMRHSSYTCICGSGENSAVLHYGHAGAPNDRTIQNGDMCLFDMGGEYYCFASDITCSFPANGKFTADQKAVYEAVLRSSRAVMGAMKPGVWWPDMHRLADRIHLEELAHMGILSGSVDAMVQAHLGAVFMPHGLGHFLGIDVHDVGGYPEGVERIDEPGLRSLRTARHLQPGMVLTVEPGIYFIDHLLDEALADPARASFLNREVLQRFRGFGGVRIEEDVVVTDSGIELLTCVPRTVEEIEACMAGCDKAFTPFSGPK
For B2, the cells killed by PEPD siRNA after 72 h (trypan blue assay), cells without PEPD^G278D [2] was 65 to 79%.

B3: PEPD in human breast cancer cells (endogenous, in cell lysates, cytosol or nuclear extracts) (enzyme, UniProt P12955 2-493, looked up)
chain: B2 chain
With B3 the percent of PEPD that binds to p53 [3] was 6 to 9%.
